Experimental data published in the supplement of paper PMC7877785.
± gives the uncertainty stated by the source.

Assay: self-splicing fitness, log relative to wild type (ln ratio); higher = more splicing; Tetrahymena group I intron in knt gene, E. coli kanamycin selection, DiMSum; sequences stand for … in CUCUCU…GGAGGGAAAAGUUAUCAGGCAUGCACCUGGUAGCUAGUCUUUAAACCAAUAGAUUGCAUCGGUUUAAAAGGCAAGACCGUCAAAUUGCGGGAAAGGGGUCAACAGCCGUUCAGUACCAAGUCUCAGGGGAAACUUUGAGAUGGCCUUGCAAAGGGUAUGGUAAUAAGCUGACGGACAUGGUCCUAACCACGCAGCCAAGUCCUAAGUCAACAGAUCUUCUGUUGAUAUGGAUGCAGUUCACAGACUAAAUGUCGGUCGGGGAAGAUGUAUUCUUCUCAUAAGAUAUAGUCGGACCUCUCCUUAAUGGGAGCUAGCGGAUGAAGUGAUGCAACACUGGAGCCGCUGGGAACUAAUUUGUAUGCGAAAGUAUAUUGAUUAGUUUUGGAGUACUCGUGGUCG
Outline: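 The eight P1ex-region nucleotides of an intron in the knt kanamycin-resistance gene on pET-22b(+) were all randomised and the library put into E. coli BL21(DE3). Six replicate transformations were grown overnight at 37°C or 30°C on LB agar with or without 25 μg/mL kanamycin, together with 100 μg/mL carbenicillin, 50 μM IPTG and 0.2% rhamnose. Colonies were pooled and amplicon-sequenced on an Illumina HiSeq 2500. Fitness from DiMSum is the error-weighted combination of wild-type-normalised replicate fold changes, kanamycin over none.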

| Sequence | self-splicing fitness (ln) (30 °C) | self-splicing fitness (ln) (37 °C) |
| --- | --- | --- |
| ACAGAGCAAUAUUACGCAUG | -2.9 ± 0.12 | -1.95 ± 0.13 |
| ACAGAGCAAUAUUACGCCGG | -2.81 ± 0.25 | -2.4 ± 0.33 |
| ACAGAGCAAUAUUACGCUCA | -1.29 ± 0.2 | -1.26 ± 0.18 |
| ACAGAGCAAUAUUACGGCAC |  | -2.62 ± 0.44 |
| ACAGAGCAAUAUUACGGCGG | -3.41 ± 0.26 | -1.98 ± 0.24 |
| ACAGAGCAAUAUUACGGGUU | -2.43 ± 0.1 | -3.08 ± 0.18 |
| ACAGAGCAAUAUUACGGUAC | -3.57 ± 0.2 | -3.02 ± 0.25 |
| ACAGAGCAAUAUUACGUCGA | -3.1 ± 0.3 | -2.73 ± 0.34 |
| ACAGAGCAAUAUUACGUGAC | -3.76 ± 0.24 | -1.6 ± 0.17 |
| ACAGAGCAAUAUUACGUGUG | -2.65 ± 0.12 | -2.99 ± 0.14 |
| ACAGAGCAAUAUUACGUUAA | -3.15 ± 0.15 | -2.21 ± 0.21 |
| ACAGAGCAAUAUUACGUUAC | -3 ± 0.15 | -2.96 ± 0.25 |
| ACAUAGCAAUAUUACGAACG | -1.2 ± 0.17 | -0.114 ± 0.28 |
| ACAUAGCAAUAUUACGAAUA | -2.06 ± 0.28 | -0.539 ± 0.2 |
| ACAUAGCAAUAUUACGACCA | -0.589 ± 0.12 | 0.121 ± 0.14 |
| ACAUAGCAAUAUUACGACGC | -0.172 ± 0.071 | 0.801 ± 0.1 |
| ACAUAGCAAUAUUACGACUU | 0.0662 ± 0.074 | -0.163 ± 0.087 |
| ACAUAGCAAUAUUACGCAAG | -1.9 ± 0.12 | -1.25 ± 0.2 |
| ACAUAGCAAUAUUACGCCCU | -0.862 ± 0.083 | -0.134 ± 0.1 |
| ACAUAGCAAUAUUACGCCGA | -1.38 ± 0.19 | -0.864 ± 0.18 |
| ACAUAGCAAUAUUACGCGGA | -2.07 ± 0.14 | -0.505 ± 0.1 |
| ACAUAGCAAUAUUACGCUAA | -2.26 ± 0.23 | -0.742 ± 0.34 |
| ACAUAGCAAUAUUACGCUCU | -0.768 ± 0.084 | -0.2 ± 0.12 |
| ACAUAGCAAUAUUACGGCUU | -0.628 ± 0.09 | 0.133 ± 0.11 |

| Sequence | self-splicing fitness (ln) (30 °C) | self-splicing fitness (ln) (37 °C) |
| --- | --- | --- |
| ACAUAGCAAUAUUACGGGGU | -3.67 ± 0.17 | -1.81 ± 0.14 |
| ACAUAGCAAUAUUACGGUAA | -2.88 ± 0.15 | -1.52 ± 0.12 |
| ACAUAGCAAUAUUACGGUUG | -2.29 ± 0.079 | -1.95 ± 0.1 |
| ACAUAGCAAUAUUACGUAAG | -1.94 ± 0.085 | -1.6 ± 0.12 |
| ACAUAGCAAUAUUACGUCAA | -3.99 ± 0.21 | -1.63 ± 0.11 |
| ACAUAGCAAUAUUACGUCGG | -2.1 ± 0.099 | -1.16 ± 0.1 |
| ACAUAGCAAUAUUACGUCUC |  | -2.01 ± 0.25 |
| ACAUAGCAAUAUUACGUUCC | -2.65 ± 0.23 | -2.1 ± 0.34 |
| ACAUAGCAAUAUUACGUUGU | -3.63 ± 0.15 | -2.78 ± 0.2 |
| ACAUAGCAAUAUUACGUUUC | -3.55 ± 0.23 | -2.84 ± 0.3 |
| ACAUAGCAAUAUUACGUUUG | -2.83 ± 0.12 | -2.51 ± 0.15 |
| ACCAAGCAAUAUUACGAAUG | -3.18 ± 0.1 | -1.78 ± 0.1 |
| ACCAAGCAAUAUUACGACAC | -1.29 ± 0.093 | -1.3 ± 0.13 |
| ACCAAGCAAUAUUACGAUGA | -1.97 ± 0.1 | -1.36 ± 0.11 |
| ACCAAGCAAUAUUACGCAGG | -3.41 ± 0.13 | -2.59 ± 0.13 |
| ACCAAGCAAUAUUACGCCCU | -0.139 ± 0.091 | 0.663 ± 0.14 |
| ACCAAGCAAUAUUACGCCUC | -2.34 ± 0.22 | -0.371 ± 0.18 |
| ACCAAGCAAUAUUACGCUCA | -0.49 ± 0.098 | -0.055 ± 0.11 |
| ACCAAGCAAUAUUACGGCCG | -0.944 ± 0.086 | -0.259 ± 0.11 |
| ACCAAGCAAUAUUACGGCGA | -0.805 ± 0.064 | -0.254 ± 0.072 |
| ACCAAGCAAUAUUACGGCGG | -1.04 ± 0.083 | -0.733 ± 0.11 |
| ACCAAGCAAUAUUACGGGAG | -3.22 ± 0.13 | -2.66 ± 0.14 |
| ACCAAGCAAUAUUACGGGCG | -0.824 ± 0.048 | 0.12 ± 0.068 |
| ACCAAGCAAUAUUACGGGGG | -2.15 ± 0.096 | -2.29 ± 0.14 |

| Sequence | self-splicing fitness (ln) (30 °C) | self-splicing fitness (ln) (37 °C) |
| --- | --- | --- |
| ACCAAGCAAUAUUACGGUGG | -4.89 ± 0.21 | -2.53 ± 0.14 |
| ACCAAGCAAUAUUACGGUUA | -1.63 ± 0.1 | -1.68 ± 0.096 |
| ACCAAGCAAUAUUACGGUUC | -3.36 ± 0.15 | -3.46 ± 0.25 |
| ACCAAGCAAUAUUACGGUUU | -3.14 ± 0.11 | -2.08 ± 0.1 |
| ACCAAGCAAUAUUACGUAUC | -3.4 ± 0.1 | -2.34 ± 0.11 |
| ACCAAGCAAUAUUACGUAUU | -3.77 ± 0.14 | -2.07 ± 0.12 |
| ACCAAGCAAUAUUACGUUAA | -3.17 ± 0.18 | -2.46 ± 0.17 |
| ACCAAGCAAUAUUACGUUUG | -4.33 ± 0.16 | -2.43 ± 0.14 |
| ACCCAGCAAUAUUACGAAAA | -1.66 ± 0.097 | -1.83 ± 0.13 |
| ACCCAGCAAUAUUACGACAU | -0.995 ± 0.011 | -0.241 ± 0.032 |
| ACCCAGCAAUAUUACGAGCG | -2.3 ± 0.074 | -0.837 ± 0.091 |
| ACCCAGCAAUAUUACGAGUG | -1.74 ± 0.054 | -0.755 ± 0.058 |
| ACCCAGCAAUAUUACGAUAG | -3.3 ± 0.1 | -1.78 ± 0.1 |
| ACCCAGCAAUAUUACGAUGC | -1.31 ± 0.06 | 0.13 ± 0.073 |
| ACCCAGCAAUAUUACGAUUA | -1.61 ± 0.09 | -1.41 ± 0.082 |
| ACCCAGCAAUAUUACGCCAC | -4.62 ± 0.42 | -1.82 ± 0.31 |
| ACCCAGCAAUAUUACGCCCC | -1.3 ± 0.12 | -0.142 ± 0.14 |
| ACCCAGCAAUAUUACGGGGC | -4.5 ± 0.19 | -2.73 ± 0.14 |
| ACCCAGCAAUAUUACGGGUC | -1.89 ± 0.085 | -2.74 ± 0.19 |
| ACCCAGCAAUAUUACGUCAC | -3.29 ± 0.14 | -2.18 ± 0.15 |
| ACCCAGCAAUAUUACGUCCU | -0.73 ± 0.075 | -0.51 ± 0.089 |
| ACCCAGCAAUAUUACGUCUU | -1.25 ± 0.063 | -0.446 ± 0.075 |
| ACCCAGCAAUAUUACGUGAA | -0.191 ± 0.041 | 0.202 ± 0.063 |
| ACCCAGCAAUAUUACGUGUG | -2.63 ± 0.062 | -1.07 ± 0.064 |

| Sequence | self-splicing fitness (ln) (30 °C) | self-splicing fitness (ln) (37 °C) |
| --- | --- | --- |
| ACCGAGCAAUAUUACGAAAG | -3.42 ± 0.37 | -1.68 ± 0.17 |
| ACCGAGCAAUAUUACGAACG | -2.36 ± 0.2 | -0.527 ± 0.22 |
| ACCGAGCAAUAUUACGAAUU | -4.54 ± 0.39 | -1.89 ± 0.21 |
| ACCGAGCAAUAUUACGACCA |  | -0.694 ± 0.33 |
| ACCGAGCAAUAUUACGACCU | -1.75 ± 0.11 | -0.53 ± 0.12 |
| ACCGAGCAAUAUUACGAGGC | -4.59 ± 0.29 | -3.23 ± 0.33 |
| ACCGAGCAAUAUUACGAUAC | -4.32 ± 0.36 | -2.09 ± 0.27 |
| ACCGAGCAAUAUUACGCACA | -2.47 ± 0.11 | -1.67 ± 0.11 |
| ACCGAGCAAUAUUACGCCCA | -1.68 ± 0.29 | -3.03 ± 0.3 |
| ACCGAGCAAUAUUACGCCUC | -2.87 ± 0.19 | -2.36 ± 0.22 |
| ACCGAGCAAUAUUACGCGCU | -2.81 ± 0.17 | -1.19 ± 0.19 |
| ACCGAGCAAUAUUACGCUAG | -2.62 ± 0.22 | -1.44 ± 0.21 |
| ACCGAGCAAUAUUACGGAGG | -3.01 ± 0.2 | -2.72 ± 0.23 |
| ACCGAGCAAUAUUACGGAUA | -2.8 ± 0.35 | -2.33 ± 0.27 |
| ACCGAGCAAUAUUACGGCUC | -4.07 ± 0.39 | -1.54 ± 0.35 |
| ACCGAGCAAUAUUACGGCUU | -2.63 ± 0.12 | -1.14 ± 0.13 |
| ACCGAGCAAUAUUACGGGUA | -2.6 ± 0.16 | -0.706 ± 0.13 |
| ACCGAGCAAUAUUACGUCGU | -3.09 ± 0.13 | -1.04 ± 0.11 |
| ACCGAGCAAUAUUACGUGAG | -2.27 ± 0.091 | -0.997 ± 0.091 |
| ACCGAGCAAUAUUACGUUAA | -3 ± 0.13 | -2.7 ± 0.14 |
| ACCGAGCAAUAUUACGUUAG | -4.03 ± 0.15 | -2.65 ± 0.15 |
| ACCGAGCAAUAUUACGUUGU | -3.67 ± 0.17 | -1.5 ± 0.12 |
| ACCUAGCAAUAUUACGAAGU | -3.53 ± 0.19 | -2.72 ± 0.19 |
| ACCUAGCAAUAUUACGACUC | -0.748 ± 0.088 | -0.405 ± 0.098 |
